For this data set, the system named is COc1cc(/C=C/C(=O)O)ccc1O. The data set can be described thus: purified protein. The note with it: control without ultrafiltrate activator, general assay 0.1 M sodium phosphate pH 6.0, 25°C.

As usually defined, the Km is the substrate concentration at which the rate is half of its maximum. Usually kcat stands for the number of substrate molecules converted per active site and unit of time at saturation. Consider “CgPAD (phenolic acid decarboxylase) (Meyerozyma guilliermondii)”, for which the Km is 5.31 mM and the kcat turned out to be 89.7 s⁻¹.

These data come from paper PMC3402150, “An endogenous factor enhances ferulic acid decarboxylation catalyzed by phenolic acid decarboxylase from Candida guilliermondii” (AMB Express, 2012).
